In publication PMC9784857, “In Vitro Characterization of a Nuclear Receptor-like Domain of the Xylanase Regulator 1 from Trichoderma reesei” (Journal of Fungi, 2022):

Columns and labels:
[1] = biological target: T1, Xyr1 (Xylanase regulator 1) (Trichoderma reesei, UniProt G0RLE8); assay: far-UV circular dichroism, ligand-induced conformational change; type: binding; conditions: 250 nM protein, buffer A (50 mM Tris, 200 mM NaCl, 50 mM NaH2PO4, 10% glycerol) pH 7.5, 22 °C; sugar 40-1000 nM; no added DNA; proposed allosteric
T1 construct: full coding region, codon-optimised synthetic gene, C-terminal His6 tag (not reported cut), pET28a (pTS1), E. coli BL21(DE3)pLysS; 105 kDa; monomer and homodimer
Excerpt: far-UV circular dichroism, ligand-induced conformational change on Xyr1 (Xylanase regulator 1) | All three carbohydrates cause a change in the Xyr1 secondary structure

[2] = biological target: T1, Xyr1 (Xylanase regulator 1); assay: as above; type: binding; conditions: 250 nM protein, buffer A (50 mM Tris, 200 mM NaCl, 50 mM NaH2PO4, 10% glycerol) pH 7.5, 22 °C, sugar 40-1000 nM, no added DNA, proposed allosteric
[3] = biological target: Xylanase regulator 1 with the A824V mutation (Xyr1_(A824V)) (Trichoderma reesei) (UniProt G0RLE8); assay: native gel or EMSA; blue native PAGE (BN-PAGE), 200 nM of each protein, non-denaturing conditions; second dimension SDS-PAGE, identity confirmed by Western blot; also run with target DNA or carbohydrates as controls (Figure S1)
[4] = biological target: T2, Xyr1 (Xylanase regulator 1) (Trichoderma reesei, UniProt G0RLE8 1-920); assay: CD spectroscopy titration (222 nm); no carbohydrate; Engel fit, n = 2; Buffer A: 50 mM Tris, 200 mM NaCl, 50 mM NaH2PO4, 10% glycerol, pH 7.5, 22 °C; CD: 250 nM protein, DNA 0-900 nM; EMSA: 15 ng probe, 10 min, 0.2 µg/µL p(dIdC) plus unspecific duplex CKT067/CKT068; conditions: protein: recombinant; tags: C-terminal His6; chain copies: 2; blunt
T2 sequence: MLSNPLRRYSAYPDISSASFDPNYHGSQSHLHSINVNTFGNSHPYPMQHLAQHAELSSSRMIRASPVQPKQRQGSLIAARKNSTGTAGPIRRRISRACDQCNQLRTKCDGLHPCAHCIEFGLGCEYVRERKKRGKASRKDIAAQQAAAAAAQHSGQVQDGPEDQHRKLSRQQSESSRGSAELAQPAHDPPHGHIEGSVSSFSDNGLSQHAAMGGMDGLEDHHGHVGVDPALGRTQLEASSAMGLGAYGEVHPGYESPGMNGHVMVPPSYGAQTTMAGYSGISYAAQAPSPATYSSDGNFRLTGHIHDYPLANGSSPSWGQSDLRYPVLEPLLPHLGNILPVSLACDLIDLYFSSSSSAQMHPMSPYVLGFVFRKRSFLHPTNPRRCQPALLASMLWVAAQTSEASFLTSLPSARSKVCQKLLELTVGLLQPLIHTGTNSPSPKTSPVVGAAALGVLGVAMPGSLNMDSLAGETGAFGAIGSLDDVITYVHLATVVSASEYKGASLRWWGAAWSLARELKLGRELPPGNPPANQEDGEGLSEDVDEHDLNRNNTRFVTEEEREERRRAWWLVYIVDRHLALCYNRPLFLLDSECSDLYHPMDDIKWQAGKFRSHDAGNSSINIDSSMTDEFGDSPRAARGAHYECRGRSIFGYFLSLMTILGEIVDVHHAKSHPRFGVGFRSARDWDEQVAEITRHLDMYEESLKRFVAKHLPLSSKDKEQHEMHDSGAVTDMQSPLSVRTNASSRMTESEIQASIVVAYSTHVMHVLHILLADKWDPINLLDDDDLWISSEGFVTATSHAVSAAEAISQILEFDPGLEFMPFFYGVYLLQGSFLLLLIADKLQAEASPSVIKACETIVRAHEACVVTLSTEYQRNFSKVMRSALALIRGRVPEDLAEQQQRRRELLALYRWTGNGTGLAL

Xyr1A824V = biological target: T3, Xyr1A824V (Trichoderma reesei, UniProt G0RLE8 1-920, A804V); assay: as above; conditions: protein: recombinant; tags: C-terminal His6; chain copies: 2; blunt
T3 sequence: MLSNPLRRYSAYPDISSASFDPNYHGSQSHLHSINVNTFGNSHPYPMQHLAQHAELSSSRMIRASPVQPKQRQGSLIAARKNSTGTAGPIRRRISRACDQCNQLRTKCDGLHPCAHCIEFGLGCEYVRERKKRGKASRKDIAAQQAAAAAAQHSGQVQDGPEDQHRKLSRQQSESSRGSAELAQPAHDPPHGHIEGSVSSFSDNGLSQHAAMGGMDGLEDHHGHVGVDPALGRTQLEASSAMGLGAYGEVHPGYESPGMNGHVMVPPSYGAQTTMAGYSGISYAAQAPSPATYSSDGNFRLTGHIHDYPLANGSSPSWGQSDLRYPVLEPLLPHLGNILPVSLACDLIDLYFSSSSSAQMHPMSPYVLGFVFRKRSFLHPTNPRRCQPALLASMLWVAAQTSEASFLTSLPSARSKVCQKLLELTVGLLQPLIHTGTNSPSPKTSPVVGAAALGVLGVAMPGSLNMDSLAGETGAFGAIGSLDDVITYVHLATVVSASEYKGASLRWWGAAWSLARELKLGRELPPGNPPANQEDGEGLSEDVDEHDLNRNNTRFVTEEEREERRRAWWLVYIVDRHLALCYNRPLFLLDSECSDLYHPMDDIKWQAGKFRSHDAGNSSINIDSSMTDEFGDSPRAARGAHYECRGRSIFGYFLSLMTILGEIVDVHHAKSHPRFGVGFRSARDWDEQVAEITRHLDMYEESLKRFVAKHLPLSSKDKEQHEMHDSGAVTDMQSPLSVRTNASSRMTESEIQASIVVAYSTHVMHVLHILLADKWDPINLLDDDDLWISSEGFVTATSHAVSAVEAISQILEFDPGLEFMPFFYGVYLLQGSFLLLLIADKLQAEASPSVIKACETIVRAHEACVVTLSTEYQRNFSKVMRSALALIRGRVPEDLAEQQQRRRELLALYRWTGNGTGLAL

[5] = biological target: the molecule itself; assay: native gel or EMSA; blue native PAGE (BN-PAGE), 200 nM of each protein, non-denaturing conditions; second dimension SDS-PAGE, identity confirmed by Western blot; also run with target DNA or carbohydrates as controls (Figure S1)

## O=P(O)(O)OC[C@H]1OC(O)[C@H](O)[C@@H](O)[C@@H]1O (stereo partly drawn) [D-glucose-6-phosphate]
[1]
  loss of α-helix structures: 21%

## OC1OC[C@@H](O)[C@H](O)[C@H]1O (stereo partly drawn) [D-xylose]
[2]
  loss of α-helix structures (up to): 31%

## OC[C@H]1O[C@@H](O[C@H]2C(O)O[C@H](CO)[C@@H](O)[C@@H]2O)[C@H](O)[C@@H](O)[C@@H]1O (stereo partly shown) [sophorose]
[2]; spectra not shown, stated highly similar to D-xylose
  loss of α-helix structures (up to): 31%

## Xylanase regulator 1 with the A824V mutation (Xyr1_(A824V)) (from UniProt G0RLE8 1-920)
[3]
  stoichiometry N: 2

B1: xyn1 URR fragment (-430 to -396), Pxyn1f/Pxyn1r (dsDNA)
DNA 1: TTGGCAGGCTAAATGCGACATCTTAGCCGGATGCA
DNA 2: TGCATCCGGCTAAGATGTCGCATTTAGCCTGCCAA
[4]
  Kd: 128 nM
Xyr1A824V
  Kd: 523 nM

B2: Xylanase regulator 1 (Xyr1), wild type (natural protein)
chain: MLSNPLRRYSAYPDISSASFDPNYHGSQSHLHSINVNTFGNSHPYPMQHLAQHAELSSSRMIRASPVQPKQRQGSLIAARKNSTGTAGPIRRRISRACDQCNQLRTKCDGLHPCAHCIEFGLGCEYVRERKKRGKASRKDIAAQQAAAAAAQHSGQVQDGPEDQHRKLSRQQSESSRGSAELAQPAHDPPHGHIEGSVSSFSDNGLSQHAAMGGMDGLEDHHGHVGVDPALGRTQLEASSAMGLGAYGEVHPGYESPGMNGHVMVPPSYGAQTTMAGYSGISYAAQAPSPATYSSDGNFRLTGHIHDYPLANGSSPSWGQSDLRYPVLEPLLPHLGNILPVSLACDLIDLYFSSSSSAQMHPMSPYVLGFVFRKRSFLHPTNPRRCQPALLASMLWVAAQTSEASFLTSLPSARSKVCQKLLELTVGLLQPLIHTGTNSPSPKTSPVVGAAALGVLGVAMPGSLNMDSLAGETGAFGAIGSLDDVITYVHLATVVSASEYKGASLRWWGAAWSLARELKLGRELPPGNPPANQEDGEGLSEDVDEHDLNRNNTRFVTEEEREERRRAWWLVYIVDRHLALCYNRPLFLLDSECSDLYHPMDDIKWQAGKFRSHDAGNSSINIDSSMTDEFGDSPRAARGAHYECRGRSIFGYFLSLMTILGEIVDVHHAKSHPRFGVGFRSARDWDEQVAEITRHLDMYEESLKRFVAKHLPLSSKDKEQHEMHDSGAVTDMQSPLSVRTNASSRMTESEIQASIVVAYSTHVMHVLHILLADKWDPINLLDDDDLWISSEGFVTATSHAVSAAEAISQILEFDPGLEFMPFFYGVYLLQGSFLLLLIADKLQAEASPSVIKACETIVRAHEACVVTLSTEYQRNFSKVMRSALALIRGRVPEDLAEQQQRRRELLALYRWTGNGTGLAL
[5]
  stoichiometry N: 2
